B1: Splicing factor U2AF 65 kDa subunit (Homo sapiens), P26368 (parent)
chain: MSDFDEFERQLNENKQERDKENRHRKRSHSRSRSRDRKRRSRSRDRRNRDQRSASRDRRRRSKPLTRGAKEEHGGLIRSPRHEKKKKVRKYWDVPPPGFEHITPMQYKAMQAAGQIPATALLPTMTPDGLAVTPTPVPVVGSQMTRQARRLYVGNIPFGITEEAMMDFFNAQMRLGGLTQAPGNPVLAVQINQDKNFAFLEFRSVDETTQAMAFDGIIFQGQSLKIRRPHDYQPLPGMSENPSVYVPGVVSTVVPDSAHKLFIGGLPNYLNDDQVKELLTSFGPLKAFNLVKDSATGLSKGYAFCEYVDINVTDQAIAGLNGMQLGDKKLLVQRASVGAKNATLVSPPSTINQTPVTLQVPGLMSSQVQMGGHPTEVLCLMNMVLPEELLDDEEYEEIVEDVRDECSKYGLVKSIEIPRPVDGVEVPGCGKIFVEFTSVFDCQKAMQGLTGRKFANRVVVTKYCDPDSYHRRDFW
partner: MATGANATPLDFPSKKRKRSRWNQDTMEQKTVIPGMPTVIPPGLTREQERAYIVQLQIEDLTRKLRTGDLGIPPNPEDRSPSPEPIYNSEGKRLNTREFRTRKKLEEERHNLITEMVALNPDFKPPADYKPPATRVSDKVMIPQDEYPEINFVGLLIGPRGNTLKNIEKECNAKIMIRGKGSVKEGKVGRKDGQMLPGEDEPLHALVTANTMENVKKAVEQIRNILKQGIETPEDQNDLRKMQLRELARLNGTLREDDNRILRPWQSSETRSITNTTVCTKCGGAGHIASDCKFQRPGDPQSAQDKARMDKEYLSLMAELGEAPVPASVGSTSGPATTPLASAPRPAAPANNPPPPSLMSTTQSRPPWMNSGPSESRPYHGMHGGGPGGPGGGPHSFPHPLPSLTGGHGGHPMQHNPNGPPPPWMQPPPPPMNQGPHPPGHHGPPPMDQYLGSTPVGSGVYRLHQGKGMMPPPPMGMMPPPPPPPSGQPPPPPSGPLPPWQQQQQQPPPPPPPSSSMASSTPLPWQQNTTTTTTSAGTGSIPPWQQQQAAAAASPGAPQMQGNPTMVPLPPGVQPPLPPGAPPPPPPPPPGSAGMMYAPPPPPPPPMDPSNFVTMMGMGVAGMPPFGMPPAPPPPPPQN
B2: Splicing factor 1 (Homo sapiens), Q15637 (parent)
chain: B1 partner

Variants of: B1
Details: with sf01_human SF1, Q15637

Variant | effect of a mutation on the interaction
E396K;E397K | disrupting interaction
D391A;D392A;E393A;E394A | decreasing interaction
E387G;E388A | with no effect
F454A | decreasing interaction
F454Y | decreasing interaction
E387R;E388R | disrupting interaction
E396A;E397A | with no effect
D391R;D392R;E393K;E394K | disrupting interaction
E396G;E397A | disrupting interaction

Variants of: B2
Details: with U2AF2, P26368

Variant | effect of a mutation on the interaction
R19E | with no effect
K15E;K16E;R17D | disrupting interaction
Q24A | with no effect
N23A | with no effect
W22A | disrupting interaction
W22F | with no effect
R17E | with no effect
K16E;R17D;K18E | disrupting interaction
K15E | decreasing interaction
K16A;R17A;K18A | with no effect
R21K | with no effect
R21D | disrupting interaction

Reference: IntAct's records for PubMed 12718882
